{
  "source": "patent US20160200782A1",
  "test_in_all_cases": "cell-based or functional assay",
  "key": {"IRR(h) (human)": {"biological_target": "IRR(h) (human) (UniProt P14616)"}, "CaMKI(h) (human)": {"biological_target": "CaMKI(h) (human) (UniProt Q14012)", "sequence (Q14012 whole entry)": "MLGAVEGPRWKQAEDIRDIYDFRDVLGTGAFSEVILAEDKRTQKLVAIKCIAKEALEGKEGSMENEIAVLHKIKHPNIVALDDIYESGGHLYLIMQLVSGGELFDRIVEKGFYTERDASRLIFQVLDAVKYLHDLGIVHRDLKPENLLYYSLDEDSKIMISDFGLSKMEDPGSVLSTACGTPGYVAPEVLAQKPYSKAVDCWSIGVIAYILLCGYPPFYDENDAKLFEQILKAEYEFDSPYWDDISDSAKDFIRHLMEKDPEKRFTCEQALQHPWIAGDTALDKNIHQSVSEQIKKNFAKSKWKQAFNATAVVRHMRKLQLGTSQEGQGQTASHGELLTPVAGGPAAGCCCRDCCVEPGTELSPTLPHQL"}, "EphB4(h) (human)": {"biological_target": "EphB4(h) (human) (UniProt P54760)"}, "Ros(h) (human)": {"biological_target": "Ros(h) (human) (UniProt P08922)", "sequence (P08922 1883-2347 limits assumed)": "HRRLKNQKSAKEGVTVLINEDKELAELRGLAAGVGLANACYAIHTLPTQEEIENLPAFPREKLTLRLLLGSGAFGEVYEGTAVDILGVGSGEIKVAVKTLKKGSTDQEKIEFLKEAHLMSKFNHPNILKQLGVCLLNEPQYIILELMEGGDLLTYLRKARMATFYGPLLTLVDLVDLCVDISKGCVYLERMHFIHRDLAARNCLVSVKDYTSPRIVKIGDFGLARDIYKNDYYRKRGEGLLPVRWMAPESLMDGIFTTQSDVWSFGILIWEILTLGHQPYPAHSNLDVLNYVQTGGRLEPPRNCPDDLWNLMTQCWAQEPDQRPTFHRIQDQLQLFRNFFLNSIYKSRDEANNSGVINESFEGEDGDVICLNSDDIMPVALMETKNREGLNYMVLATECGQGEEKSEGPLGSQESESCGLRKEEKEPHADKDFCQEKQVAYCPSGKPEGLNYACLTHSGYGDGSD"}, "PKA(h) (human)": {"biological_target": "PKA(h) (human)"}, "eEF-2K(h) (human)": {"biological_target": "eEF-2K(h) (human) (UniProt O00418)"}, "PKBγ(h) (human)": {"biological_target": "PKBγ(h) (human) (UniProt Q9Y243)"}, "PKCα(h) (human)": {"biological_target": "PKCα(h) (human) (UniProt P17252)"}, "Lck(h) (human)": {"biological_target": "Lck(h) (human) (UniProt P06239)"}, "CLK3(h) (human)": {"biological_target": "CLK3(h) (human) (UniProt P49761)"}, "PrKX(h) (human)": {"biological_target": "PrKX(h) (human) (UniProt P51817)"}, "ACK1(h) (human)": {"biological_target": "ACK1(h) (human) (UniProt Q07912)"}, "Ron(h) (human)": {"biological_target": "Ron(h) (human) (UniProt Q04912)"}, "MEK1(h) (human)": {"biological_target": "MEK1(h) (human) (UniProt Q02750)"}, "Txk(h) (human)": {"biological_target": "Txk(h) (human) (UniProt P42681)"}, "CaMKIIγ(h) (human)": {"biological_target": "CaMKIIγ(h) (human) (UniProt Q13555)"}, "Rsk1(h) (human)": {"biological_target": "Rsk1(h) (human) (UniProt Q15418)"}, "MSK1(h) (human)": {"biological_target": "MSK1(h) (human) (UniProt O75582)", "sequence (O75582 whole entry)": "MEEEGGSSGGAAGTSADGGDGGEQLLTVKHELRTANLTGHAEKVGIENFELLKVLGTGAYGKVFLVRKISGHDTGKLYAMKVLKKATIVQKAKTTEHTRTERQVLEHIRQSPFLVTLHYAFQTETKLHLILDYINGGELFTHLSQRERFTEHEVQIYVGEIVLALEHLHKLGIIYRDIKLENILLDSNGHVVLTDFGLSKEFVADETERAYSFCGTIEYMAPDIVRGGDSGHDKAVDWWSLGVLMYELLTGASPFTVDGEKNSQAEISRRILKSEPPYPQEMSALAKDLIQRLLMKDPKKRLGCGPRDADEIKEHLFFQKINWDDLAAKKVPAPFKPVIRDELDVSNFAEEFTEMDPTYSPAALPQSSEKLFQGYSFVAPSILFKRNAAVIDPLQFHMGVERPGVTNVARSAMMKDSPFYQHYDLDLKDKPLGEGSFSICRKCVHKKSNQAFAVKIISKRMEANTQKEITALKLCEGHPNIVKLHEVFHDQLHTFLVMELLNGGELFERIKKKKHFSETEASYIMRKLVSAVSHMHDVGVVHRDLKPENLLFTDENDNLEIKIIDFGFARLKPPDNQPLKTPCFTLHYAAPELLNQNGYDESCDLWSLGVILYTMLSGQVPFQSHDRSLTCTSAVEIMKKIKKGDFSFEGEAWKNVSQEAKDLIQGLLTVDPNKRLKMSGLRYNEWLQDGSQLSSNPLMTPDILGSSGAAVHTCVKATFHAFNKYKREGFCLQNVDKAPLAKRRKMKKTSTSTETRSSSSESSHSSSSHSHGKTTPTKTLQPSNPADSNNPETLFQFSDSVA"}, "Mnk2(h) (human)": {"biological_target": "Mnk2(h) (human) (UniProt Q9HBH9)"}, "TLK2(h) (human)": {"biological_target": "TLK2(h) (human) (UniProt Q86UE8)"}, "PKCβII(h) (human)": {"biological_target": "PKCβII(h) (human) (UniProt P05771)"}, "GCK(h) (human)": {"biological_target": "GCK(h) (human) (UniProt Q12851)"}, "Src(T341M)(h) (human)": {"biological_target": "Src(T341M)(h) (human) (UniProt P12931)"}, "Ab1(M351T)(h) (human)": {"biological_target": "Ab1(M351T)(h) (human) (UniProt P00519)"}, "Snk(h) (human)": {"biological_target": "Snk(h) (human) (UniProt Q9NYY3)"}, "ALK(h) (human)": {"biological_target": "ALK(h) (human) (UniProt Q9UM73)"}, "CDK1/cyclinB(h) (human)": {"biological_target": "CDK1/cyclinB(h) (human) (UniProt P06493)"}, "mTOR(h) (human)": {"biological_target": "mTOR(h) (human) (UniProt P42345)", "sequence (P42345 1362-2549 limits assumed)": "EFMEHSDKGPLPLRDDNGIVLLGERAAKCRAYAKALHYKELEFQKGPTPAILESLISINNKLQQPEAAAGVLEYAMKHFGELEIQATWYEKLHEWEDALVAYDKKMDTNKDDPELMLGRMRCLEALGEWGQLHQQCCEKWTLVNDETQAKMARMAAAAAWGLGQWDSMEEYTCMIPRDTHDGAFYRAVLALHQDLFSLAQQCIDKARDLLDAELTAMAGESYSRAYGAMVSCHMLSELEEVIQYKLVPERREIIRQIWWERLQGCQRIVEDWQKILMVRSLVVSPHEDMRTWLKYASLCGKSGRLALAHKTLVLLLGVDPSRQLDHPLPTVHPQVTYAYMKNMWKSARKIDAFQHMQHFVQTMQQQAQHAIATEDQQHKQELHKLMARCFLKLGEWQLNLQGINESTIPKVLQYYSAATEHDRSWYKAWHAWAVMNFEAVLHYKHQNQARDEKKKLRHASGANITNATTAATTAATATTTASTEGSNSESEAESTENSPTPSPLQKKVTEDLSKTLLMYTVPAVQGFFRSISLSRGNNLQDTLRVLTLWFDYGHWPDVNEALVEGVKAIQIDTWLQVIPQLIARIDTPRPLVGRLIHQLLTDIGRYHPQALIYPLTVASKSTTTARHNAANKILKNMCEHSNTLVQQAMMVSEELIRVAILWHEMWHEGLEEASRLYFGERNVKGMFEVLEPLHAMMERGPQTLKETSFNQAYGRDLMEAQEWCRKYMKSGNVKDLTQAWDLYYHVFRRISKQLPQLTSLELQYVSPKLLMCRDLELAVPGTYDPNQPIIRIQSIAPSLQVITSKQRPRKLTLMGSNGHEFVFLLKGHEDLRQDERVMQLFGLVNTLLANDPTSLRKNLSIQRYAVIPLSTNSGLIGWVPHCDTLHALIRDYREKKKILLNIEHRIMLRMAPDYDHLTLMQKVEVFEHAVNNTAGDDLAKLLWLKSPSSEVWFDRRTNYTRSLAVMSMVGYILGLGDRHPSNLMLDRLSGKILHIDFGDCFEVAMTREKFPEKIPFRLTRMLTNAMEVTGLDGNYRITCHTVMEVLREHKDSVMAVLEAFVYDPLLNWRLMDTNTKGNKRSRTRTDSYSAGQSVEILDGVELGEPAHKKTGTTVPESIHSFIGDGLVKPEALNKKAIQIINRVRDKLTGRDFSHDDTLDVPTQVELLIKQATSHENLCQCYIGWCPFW"}, "PKCθ(h) (human)": {"biological_target": "PKCθ(h) (human) (UniProt Q04759)"}, "Flt1(h) (human)": {"biological_target": "Flt1(h) (human) (UniProt P17948)"}, "Ab1(Y253F)(h) (human)": {"biological_target": "Ab1(Y253F)(h) (human) (UniProt P00519)"}, "mTOR/FKBP12(h) (human)": {"biological_target": "mTOR/FKBP12(h) (human) (UniProt P42345)", "sequence (P42345 1362-2549 limits assumed, chain 1 of 2)": "as the sequence (P42345 1362-2549 limits assumed) above", "sequence (P62942 whole entry, chain 2 of 2, further chain)": "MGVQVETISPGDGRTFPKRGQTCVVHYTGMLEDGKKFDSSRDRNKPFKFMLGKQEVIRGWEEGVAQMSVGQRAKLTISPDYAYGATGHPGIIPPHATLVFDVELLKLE"}, "PDGFRα(h) (human)": {"biological_target": "PDGFRα(h) (human) (UniProt P16234)"}, "Rsk3(h) (human)": {"biological_target": "Rsk3(h) (human) (UniProt Q15349)"}, "PAK5(h) (human)": {"biological_target": "PAK5(h) (human) (UniProt Q9P286)"}, "Haspin(h) (human)": {"biological_target": "Haspin(h) (human) (UniProt Q8TF76)"}, "PKCδ(h) (human)": {"biological_target": "PKCδ(h) (human) (UniProt Q05655)"}, "EphA8(h) (human)": {"biological_target": "EphA8(h) (human) (UniProt P29322)"}, "Ax1(h) (human)": {"biological_target": "Ax1(h) (human) (UniProt P30530)"}, "ALK4(h) (human)": {"biological_target": "ALK4(h) (human) (UniProt P36896)"}, "Rse(h) (human)": {"biological_target": "Rse(h) (human) (UniProt Q06418)"}, "ErbB4(h) (human)": {"biological_target": "ErbB4(h) (human) (UniProt Q15303)"}, "TSSK1(h) (human)": {"biological_target": "TSSK1(h) (human) (UniProt Q9BXA7)"}, "TSSK2(h) (human)": {"biological_target": "TSSK2(h) (human) (UniProt Q96PF2)"}, "GSK3α(h) (human)": {"biological_target": "GSK3α(h) (human) (UniProt P49840)"}, "LKB1(h) (human)": {"biological_target": "LKB1(h) (human) (UniProt Q15831)", "sequence (Q15831 whole entry)": "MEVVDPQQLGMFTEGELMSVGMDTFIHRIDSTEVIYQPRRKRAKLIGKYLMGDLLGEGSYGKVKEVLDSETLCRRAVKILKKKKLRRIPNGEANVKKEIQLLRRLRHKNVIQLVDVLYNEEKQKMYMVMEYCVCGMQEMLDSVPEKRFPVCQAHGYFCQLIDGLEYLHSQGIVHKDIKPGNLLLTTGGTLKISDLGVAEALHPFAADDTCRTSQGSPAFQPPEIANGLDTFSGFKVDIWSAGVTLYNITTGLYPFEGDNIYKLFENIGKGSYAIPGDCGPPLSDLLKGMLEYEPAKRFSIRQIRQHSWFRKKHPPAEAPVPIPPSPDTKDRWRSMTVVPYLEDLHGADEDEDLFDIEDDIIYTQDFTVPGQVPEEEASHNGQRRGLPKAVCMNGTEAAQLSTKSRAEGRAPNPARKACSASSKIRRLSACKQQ"}, "SAPK2a(h) (human)": {"biological_target": "SAPK2a(h) (human) (UniProt Q16539)", "sequence (Q16539 whole entry)": "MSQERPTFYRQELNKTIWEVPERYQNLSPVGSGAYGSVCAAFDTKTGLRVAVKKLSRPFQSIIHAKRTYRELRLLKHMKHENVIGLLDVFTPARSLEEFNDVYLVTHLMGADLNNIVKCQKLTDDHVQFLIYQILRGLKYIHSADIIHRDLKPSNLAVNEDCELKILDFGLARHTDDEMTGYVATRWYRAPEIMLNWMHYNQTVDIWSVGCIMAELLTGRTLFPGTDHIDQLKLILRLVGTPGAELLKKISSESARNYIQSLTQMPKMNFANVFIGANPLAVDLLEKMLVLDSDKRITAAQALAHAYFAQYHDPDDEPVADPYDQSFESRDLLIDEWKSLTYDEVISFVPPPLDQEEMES"}, "CHK2(I157T)(h) (human)": {"biological_target": "CHK2(I157T)(h) (human) (UniProt O96017)"}, "MAPKAP-K2(h) (human)": {"biological_target": "MAPKAP-K2(h) (human) (UniProt P49137)"}, "DRAK1(h) (human)": {"biological_target": "DRAK1(h) (human) (UniProt Q9UEE5)"}, "FGFR2(h) (human)": {"biological_target": "FGFR2(h) (human) (UniProt P21802)", "sequence (P21802 456-770 limits assumed)": "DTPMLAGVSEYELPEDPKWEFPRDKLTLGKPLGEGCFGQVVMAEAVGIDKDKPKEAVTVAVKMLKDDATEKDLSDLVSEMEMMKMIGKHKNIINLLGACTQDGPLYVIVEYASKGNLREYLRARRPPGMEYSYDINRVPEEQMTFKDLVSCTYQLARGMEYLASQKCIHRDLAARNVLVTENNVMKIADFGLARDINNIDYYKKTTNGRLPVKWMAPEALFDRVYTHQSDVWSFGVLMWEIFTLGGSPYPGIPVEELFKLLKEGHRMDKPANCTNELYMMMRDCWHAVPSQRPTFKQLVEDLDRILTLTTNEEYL"}, "PKD2(h) (human)": {"biological_target": "PKD2(h) (human) (UniProt Q9BZL6)"}, "MINK(h) (human)": {"biological_target": "MINK(h) (human) (UniProt Q8N4C8)"}, "SGK(h) (human)": {"biological_target": "SGK(h) (human) (UniProt O00141)"}, "HIPK2(h) (human)": {"biological_target": "HIPK2(h) (human) (UniProt Q9H2X6)", "sequence (Q9H2X6 165-564 limits assumed)": "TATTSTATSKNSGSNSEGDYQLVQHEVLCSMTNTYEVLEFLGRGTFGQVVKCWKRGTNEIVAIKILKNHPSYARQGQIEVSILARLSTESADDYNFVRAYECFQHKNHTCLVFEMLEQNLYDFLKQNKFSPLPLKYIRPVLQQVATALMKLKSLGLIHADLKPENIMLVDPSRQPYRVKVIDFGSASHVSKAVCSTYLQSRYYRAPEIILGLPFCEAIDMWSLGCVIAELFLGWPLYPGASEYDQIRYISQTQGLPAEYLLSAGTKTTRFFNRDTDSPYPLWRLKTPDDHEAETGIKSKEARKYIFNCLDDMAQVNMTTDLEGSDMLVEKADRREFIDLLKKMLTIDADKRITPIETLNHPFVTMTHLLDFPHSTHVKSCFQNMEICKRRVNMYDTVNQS"}, "NEK11(h) (human)": {"biological_target": "NEK11(h) (human) (UniProt Q8NG66)"}, "Pim-1(h) (human)": {"biological_target": "Pim-1(h) (human) (UniProt P11309)", "sequence (P11309 whole entry)": "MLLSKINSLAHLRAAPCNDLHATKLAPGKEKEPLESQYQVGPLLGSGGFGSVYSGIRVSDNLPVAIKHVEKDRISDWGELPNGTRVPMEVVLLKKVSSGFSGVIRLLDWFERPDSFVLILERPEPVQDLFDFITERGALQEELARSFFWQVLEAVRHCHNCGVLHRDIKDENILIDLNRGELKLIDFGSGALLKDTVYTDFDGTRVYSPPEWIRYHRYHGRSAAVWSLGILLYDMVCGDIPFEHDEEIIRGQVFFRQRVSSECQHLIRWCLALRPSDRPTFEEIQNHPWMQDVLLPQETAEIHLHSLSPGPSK"}},
  "data": [
    {"substance": "MMI-0500 (peptide)", "values": [
      {"measurement": "% activity", "setting": "IRR(h) (human)", "value": 10, "unit": "%"},
      {"measurement": "% activity", "setting": "CaMKI(h) (human)", "value": -1, "unit": "%"},
      {"measurement": "% activity", "setting": "EphB4(h) (human)", "value": 38, "unit": "%"},
      {"measurement": "% activity", "setting": "Ros(h) (human)", "value": 150, "unit": "%"},
      {"measurement": "% activity", "setting": "PKA(h) (human)", "value": 118, "unit": "%"},
      {"measurement": "% activity", "setting": "eEF-2K(h) (human)", "value": 43, "unit": "%"},
      {"measurement": "% activity", "setting": "PKBγ(h) (human)", "value": 20, "unit": "%"},
      {"measurement": "% activity", "setting": "PKCα(h) (human)", "value": 3, "unit": "%"},
      {"measurement": "% activity", "setting": "Lck(h) (human)", "value": 359, "unit": "%"},
      {"measurement": "% activity", "setting": "CLK3(h) (human)", "value": 76, "unit": "%"},
      {"measurement": "% activity", "setting": "PrKX(h) (human)", "value": 57, "unit": "%"},
      {"measurement": "% activity", "setting": "ACK1(h) (human)", "value": 64, "unit": "%"},
      {"measurement": "% activity", "setting": "Ron(h) (human)", "value": 46, "unit": "%"},
      {"measurement": "% activity", "setting": "MEK1(h) (human)", "value": 21, "unit": "%"},
      {"measurement": "% activity", "setting": "Txk(h) (human)", "value": 10, "unit": "%"},
      {"measurement": "% activity", "setting": "CaMKIIγ(h) (human)", "value": 3, "unit": "%"},
      {"measurement": "% activity", "setting": "Rsk1(h) (human)", "value": 34, "unit": "%"},
      {"measurement": "% activity", "setting": "MSK1(h) (human)", "value": 8, "unit": "%"},
      {"measurement": "% activity", "setting": "Mnk2(h) (human)", "value": 6, "unit": "%"},
      {"measurement": "% activity", "setting": "TLK2(h) (human)", "value": 133, "unit": "%"},
      {"measurement": "% activity", "setting": "PKCβII(h) (human)", "value": 3, "unit": "%"},
      {"measurement": "% activity", "setting": "GCK(h) (human)", "value": 30, "unit": "%"},
      {"measurement": "% activity", "setting": "Src(T341M)(h) (human)", "value": 59, "unit": "%"},
      {"measurement": "% activity", "setting": "Ab1(M351T)(h) (human)", "value": 61, "unit": "%"},
      {"measurement": "% activity", "setting": "Snk(h) (human)", "value": 122, "unit": "%"},
      {"measurement": "% activity", "setting": "ALK(h) (human)", "value": 12, "unit": "%"},
      {"measurement": "% activity", "setting": "CDK1/cyclinB(h) (human)", "value": 57, "unit": "%"},
      {"measurement": "% activity", "setting": "mTOR(h) (human)", "value": 135, "unit": "%"},
      {"measurement": "% activity", "setting": "PKCθ(h) (human)", "value": 62, "unit": "%"},
      {"measurement": "% activity", "setting": "Flt1(h) (human)", "value": 27, "unit": "%"},
      {"measurement": "% activity", "setting": "Ab1(Y253F)(h) (human)", "value": 29, "unit": "%"},
      {"measurement": "% activity", "setting": "mTOR/FKBP12(h) (human)", "value": 140, "unit": "%"},
      {"measurement": "% activity", "setting": "PDGFRα(h) (human)", "value": 40, "unit": "%"},
      {"measurement": "% activity", "setting": "Rsk3(h) (human)", "value": 23, "unit": "%"},
      {"measurement": "% activity", "setting": "PAK5(h) (human)", "value": 125, "unit": "%"},
      {"measurement": "% activity", "setting": "Haspin(h) (human)", "value": 25, "unit": "%"},
      {"measurement": "% activity", "setting": "PKCδ(h) (human)", "value": 61, "unit": "%"},
      {"measurement": "% activity", "setting": "EphA8(h) (human)", "value": 337, "unit": "%"},
      {"measurement": "% activity", "setting": "Ax1(h) (human)", "value": 12, "unit": "%"},
      {"measurement": "% activity", "setting": "ALK4(h) (human)", "value": 81, "unit": "%"},
      {"measurement": "% activity", "setting": "Rse(h) (human)", "value": 63, "unit": "%"},
      {"measurement": "% activity", "setting": "ErbB4(h) (human)", "value": 2, "unit": "%"},
      {"measurement": "% activity", "setting": "TSSK1(h) (human)", "value": 46, "unit": "%"},
      {"measurement": "% activity", "setting": "TSSK2(h) (human)", "value": 92, "unit": "%"},
      {"measurement": "% activity", "setting": "GSK3α(h) (human)", "value": 175, "unit": "%"},
      {"measurement": "% activity", "setting": "LKB1(h) (human)", "value": 51, "unit": "%"},
      {"measurement": "% activity", "setting": "SAPK2a(h) (human)", "value": 52, "unit": "%"},
      {"measurement": "% activity", "setting": "CHK2(I157T)(h) (human)", "value": 3, "unit": "%"},
      {"measurement": "% activity", "setting": "MAPKAP-K2(h) (human)", "value": 9, "unit": "%"},
      {"measurement": "% activity", "setting": "DRAK1(h) (human)", "value": 8, "unit": "%"},
      {"measurement": "% activity", "setting": "FGFR2(h) (human)", "value": 12, "unit": "%"},
      {"measurement": "% activity", "setting": "PKD2(h) (human)", "value": 10, "unit": "%"},
      {"measurement": "% activity", "setting": "MINK(h) (human)", "value": 5, "unit": "%"},
      {"measurement": "% activity", "setting": "SGK(h) (human)", "value": 2, "unit": "%"},
      {"measurement": "% activity", "setting": "HIPK2(h) (human)", "value": 38, "unit": "%"},
      {"measurement": "% activity", "setting": "NEK11(h) (human)", "value": 2, "unit": "%"},
      {"measurement": "% activity", "setting": "Pim-1(h) (human)", "value": 0, "unit": "%"}
    ]}
  ]
}
